# Measurements published in article PMC12567051, “Performing Dual Glucose Clamp Experiments in Sedated Farm Swine: A Practical Method” (Methods and Protocols, 2025).
# Experiment: Insulin pharmacokinetics during hyperinsulinemic-euglycemic clamp
# Type: in vivo
# Settings: 24 clamps in 2 swine
# From the text: One CSII was initiated with commercial insulin lispro (U-100, Eli Lilly and Company, Indianapolis, IN, USA) at 0.4 units/hour, and one with preservative-free saline or diluent via 2 commercial insulin pumps. This strategy was used to mimic real-world conditions and avoid potential occlusion of the catheters, while comparing occlusion rates between insulin and saline infusions. Postoperatively, the swine were monitored twice daily for signs of pain/discomfort, hypoglycemia, and infection. Glucose concentrations (trends) were also monitored using two real-time continuous glucose sensors (CGM G4 Dexcom Inc, San Diego, CA, USA) placed laterally on the lower abdomen.
# Once the fasting animal was comfortably positioned in the sling apparatus, endogenous insulin secretion was suppressed using an octreotide infusion. An initial octreotide bolus dose (7.2 µg/kg) was administered 60 min prior to starting the clamp, followed by a maintenance dose of (3.6 µg/kg/h). […]
# After beginning the clamp study on the first swine, a second team ensured that duplicate laboratory and anesthesia equipment were set up and calibrated in the other half of the procedure room. […] Blood glucose measurements and insulin samples were obtained at 5 and 10 min intervals for 240 min, while other data, such as vital signs and gas concentrations, were recorded continuously.
substance,measurement,setting,value
insulin lispro,time for insulin concentrations to return to near baseline,"after bolus insulin 0.15 IU/kg via CSII catheter, sedated farm swine",≤ 90 min
same,insulin Cmax,"sedated female farm swine, bolus insulin 0.15 IU/kg via CSII catheter (subcutaneous, abdomen), endogenous insulin suppressed with octreotide, glucose clamped at 85 mg/dL, mean",0.1085 nM
